Laboratory results published in patent US20220024981A1 (Novartis, published 2022).
Bridge positions count the residues as written; N and C are the ends. Square brackets hold non-standard residues; d marks the D form. Phe(3,4-Cl2) = N[C@@H](Cc1ccc(Cl)c(Cl)c1)C(=O)O; Phe(4-CF3) = N[C@@H](Cc1ccc(C(F)(F)F)cc1)C(=O)O; Bip = N[C@@H](Cc1ccc(-c2ccccc2)cc1)C(=O)O; Phe(3-F) = N[C@@H](Cc1cccc(F)c1)C(=O)O; NMeF = CN[C@@H](Cc1ccccc1)C(=O)O; NMeE = CN[C@@H](CCC(=O)O)C(=O)O; NMeA = CN[C@@H](C)C(=O)O

Target: T1, Human PCSK9 Alexa Fluor 647 (human, UniProt Q8NBP7 31-692, limits assumed, Alexa Fluor 647 label (site not stated))
T1 construct: Labelled tracer of the TR-FRET assay, 16 nM stock; also called proprotein convertase subtilisin/kexin type 9
T1 sequence (Q8NBP7 31-692 limits assumed): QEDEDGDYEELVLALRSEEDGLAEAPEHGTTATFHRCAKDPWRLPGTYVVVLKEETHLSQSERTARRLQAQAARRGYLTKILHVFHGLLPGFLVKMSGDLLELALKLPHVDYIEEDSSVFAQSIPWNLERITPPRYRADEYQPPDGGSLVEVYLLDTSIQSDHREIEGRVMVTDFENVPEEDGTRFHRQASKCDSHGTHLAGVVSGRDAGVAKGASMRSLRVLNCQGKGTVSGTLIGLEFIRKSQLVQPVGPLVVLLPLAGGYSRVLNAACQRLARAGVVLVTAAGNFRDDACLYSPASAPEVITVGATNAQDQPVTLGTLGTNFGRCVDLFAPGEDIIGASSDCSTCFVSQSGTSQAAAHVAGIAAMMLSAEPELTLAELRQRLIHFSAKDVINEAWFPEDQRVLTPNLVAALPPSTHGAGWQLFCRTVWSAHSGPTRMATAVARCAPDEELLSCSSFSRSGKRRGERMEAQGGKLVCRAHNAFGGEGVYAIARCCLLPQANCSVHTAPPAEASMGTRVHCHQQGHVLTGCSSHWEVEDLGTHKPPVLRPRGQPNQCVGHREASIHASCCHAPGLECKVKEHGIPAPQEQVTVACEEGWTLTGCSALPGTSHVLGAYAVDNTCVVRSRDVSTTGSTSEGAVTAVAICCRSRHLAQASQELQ
Experiment: TR-FRET competition: PCSK9-Alexa Fluor 647 vs LDLR ECD-Eu kryptate
Description: A Proxi plate-low volume assay plate was used for the assay. […] Following a 30 minute incubation, 5 uL of 4 nM Human LDLR extracellular domain-Europium Kryptate was added and the mixture was incubated for an additional 2 hours.
The TR-FRET signal was measured on an EnVision or PheraStar instrument with a 60 μs delay, 330 nm excitation and 665 nm emission (FRET), and 330 nm excitation and 615 nm (Europium). The FRET ratio (FRET/Europium) was used for calculations.

Row | Binder | IC50 [nM] | Maximum % inhibition [%]
1 | {CH2CO}-FVDSTY[NMeA][Bip][NMeA]NHPCG-NH2 (thioether N-13; SMILES CC(C)[C@@H]1NC(=O)[C@H](Cc2ccccc2)NC(=O)CSC[C@@H](C(=O)NCC(N)=O)NC(=O)[C@@H]2CCCN2C(=O)[C@H](Cc2c[nH]cn2)NC(=O)[C@H](CC(N)=O)NC(=O)[C@H](C)N(C)C(=O)[C@H](Cc2ccc(-c3ccccc3)cc2)NC(=O)[C@H](C)N(C)C(=O)[C@H](Cc2ccc(O)cc2)NC(=O)[C@H]([C@@H](C)O)NC(=O)[C@H](CO)NC(=O)[C@H](CC(=O)O)NC1=O, also called 1-4; Ex. No. 1-4) [Ac*-F-V-D-S-T-Y-(N-Me)A-B-(N-Me)A-N-H-P-C*-G-NH2] | 4 | 60
2 | {CH2CO}-FVDTTS[NMeF][Bip][NMeA]ESPCG-NH2 (thioether N-13; SMILES CC(C)[C@@H]1NC(=O)[C@H](Cc2ccccc2)NC(=O)CSC[C@@H](C(=O)NCC(N)=O)NC(=O)[C@@H]2CCCN2C(=O)[C@H](CO)NC(=O)[C@H](CCC(=O)O)NC(=O)[C@H](C)N(C)C(=O)[C@H](Cc2ccc(-c3ccccc3)cc2)NC(=O)[C@H](Cc2ccccc2)N(C)C(=O)[C@H](CO)NC(=O)[C@H]([C@@H](C)O)NC(=O)[C@H]([C@@H](C)O)NC(=O)[C@H](CC(=O)O)NC1=O, also called 1-5; Ex. No. 1-5) [Ac*-F-V-D-T-T-S-(N-Me)F-B-(N-Me)A-E-S-P-C*-G-NH2] | 35 | 95
3 | {CH2CO}-FVDTTS[NMeF][Bip][NMeA]NSPCG-NH2 (thioether N-13; SMILES CC(C)[C@@H]1NC(=O)[C@H](Cc2ccccc2)NC(=O)CSC[C@@H](C(=O)NCC(N)=O)NC(=O)[C@@H]2CCCN2C(=O)[C@H](CO)NC(=O)[C@H](CC(N)=O)NC(=O)[C@H](C)N(C)C(=O)[C@H](Cc2ccc(-c3ccccc3)cc2)NC(=O)[C@H](Cc2ccccc2)N(C)C(=O)[C@H](CO)NC(=O)[C@H]([C@@H](C)O)NC(=O)[C@H]([C@@H](C)O)NC(=O)[C@H](CC(=O)O)NC1=O, also called 1-3; Ex. No. 1-3) [Ac*-F-V-D-T-T-S-(N-Me)F-B-(N-Me)A-N-S-P-C*-G-NH2] | 2.1 | 55
4 | FVSTTSFXAESPCG (not fully specified; N-terminal acetyl (Ac*) joined by a sulfide bond to the side chain of Cys13 (cyclic); 7: L-(N-Me)Phe; 8: L-Bip; 9: L-(N-Me)Ala; C-terminal amide (NH2), also called 1-12; Ex. No. 1-12) [Ac*-F-V-S-T-T-S-(N-Me)F-B-(N-Me)A-E-S-P-C*-G-NH2] | 14 | 87
5 | {CH2CO}-FVDTTS[NMeF][Bip][NMeE]NSPCG-NH2 (thioether N-13; SMILES CC(C)[C@@H]1NC(=O)[C@H](Cc2ccccc2)NC(=O)CSC[C@@H](C(=O)NCC(N)=O)NC(=O)[C@@H]2CCCN2C(=O)[C@H](CO)NC(=O)[C@H](CC(N)=O)NC(=O)[C@H](CCC(=O)O)N(C)C(=O)[C@H](Cc2ccc(-c3ccccc3)cc2)NC(=O)[C@H](Cc2ccccc2)N(C)C(=O)[C@H](CO)NC(=O)[C@H]([C@@H](C)O)NC(=O)[C@H]([C@@H](C)O)NC(=O)[C@H](CC(=O)O)NC1=O, also called 1-1; Ex. No. 1-1) [Ac*-F-V-D-T-T-S-(N-Me)F-B-(N-Me)E-N-S-P-C*-G-NH2] | 2.6 | 65
6 | FVSTTXAXADSPCG (not fully specified; N-terminal acetyl (Ac*) joined by a sulfide bond to the side chain of Cys13 (cyclic); 6: L-Bip; 7: L-(N-Me)Ala; 8: L-Bip; 9: L-(N-Me)Ala; C-terminal amide (NH2), also called 1-8; Ex. No. 1-8) [Ac*-F-V-S-T-T-B-(N-Me)A-B-(N-Me)A-D-S-P-C*-G-NH2] | 2.3 | 58
7 | {CH2CO}-FVSTT[Bip][NMeA][Phe(3,4-Cl2)][NMeA]DRPCG-NH2 (thioether N-13; SMILES CC(C)[C@@H]1NC(=O)[C@H](Cc2ccccc2)NC(=O)CSC[C@@H](C(=O)NCC(N)=O)NC(=O)[C@@H]2CCCN2C(=O)[C@H](CCCNC(=N)N)NC(=O)[C@H](CC(=O)O)NC(=O)[C@H](C)N(C)C(=O)[C@H](Cc2ccc(Cl)c(Cl)c2)NC(=O)[C@H](C)N(C)C(=O)[C@H](Cc2ccc(-c3ccccc3)cc2)NC(=O)[C@H]([C@@H](C)O)NC(=O)[C@H]([C@@H](C)O)NC(=O)[C@H](CO)NC1=O, also called 1-14; Ex. No. 1-14) [Ac*-F-V-S-T-T-B-(N-Me)A-(3,4-diCl)F-(N-Me)A-D-R-P-C*-G-NH2] | 1.2 | 49
8 | {CH2CO}-FVDTT[Bip][NMeA][Bip][NMeA]ESPCG-NH2 (thioether N-13; SMILES CC(C)[C@@H]1NC(=O)[C@H](Cc2ccccc2)NC(=O)CSC[C@@H](C(=O)NCC(N)=O)NC(=O)[C@@H]2CCCN2C(=O)[C@H](CO)NC(=O)[C@H](CCC(=O)O)NC(=O)[C@H](C)N(C)C(=O)[C@H](Cc2ccc(-c3ccccc3)cc2)NC(=O)[C@H](C)N(C)C(=O)[C@H](Cc2ccc(-c3ccccc3)cc2)NC(=O)[C@H]([C@@H](C)O)NC(=O)[C@H]([C@@H](C)O)NC(=O)[C@H](CC(=O)O)NC1=O, also called 1-10; Ex. No. 1-10) [Ac*-F-V-D-T-T-B-(N-Me)A-B-(N-Me)A-E-S-P-C*-G-NH2] | 6 | 90
9 | FVSTTXAXAESPCG (not fully specified; N-terminal acetyl (Ac*) joined by a sulfide bond to the side chain of Cys13 (cyclic); 6: L-Bip; 7: L-(N-Me)Ala; 8: L-Bip; 9: L-(N-Me)Ala; C-terminal amide (NH2), also called 1-25; Ex. No. 1-25) [Ac*-F-V-S-T-T-B-(N-Me)A-B-(N-Me)A-E-S-P-C*-G-NH2] | 2.5 | 68
10 | FVSTTXAXAPSPCG (not fully specified; N-terminal acetyl (Ac*) joined by a sulfide bond to the side chain of Cys13 (cyclic); 6: L-Bip; 7: L-(N-Me)Ala; 8: L-Bip; 9: L-(N-Me)Ala; C-terminal amide (NH2), also called 1-20; Ex. No. 1-20) [Ac*-F-V-S-T-T-B-(N-Me)A-B-(N-Me)A-P-S-P-C*-G-NH2] | 8.1 | 35
11 | {CH2CO}-FVSTT[Phe(4-CF3)][NMeA][Phe(4-CF3)][NMeA]ERPCG-NH2 (thioether N-13; SMILES CC(C)[C@@H]1NC(=O)[C@H](Cc2ccccc2)NC(=O)CSC[C@@H](C(=O)NCC(N)=O)NC(=O)[C@@H]2CCCN2C(=O)[C@H](CCCNC(=N)N)NC(=O)[C@H](CCC(=O)O)NC(=O)[C@H](C)N(C)C(=O)[C@H](Cc2ccc(C(F)(F)F)cc2)NC(=O)[C@H](C)N(C)C(=O)[C@H](Cc2ccc(C(F)(F)F)cc2)NC(=O)[C@H]([C@@H](C)O)NC(=O)[C@H]([C@@H](C)O)NC(=O)[C@H](CO)NC1=O, also called 1-11; Ex. No. 1-11) [Ac*-F-V-S-T-T-(p-CF3)F-(N-Me)A-(p-CF3)F-(N-Me)A-E-R-P-C*-G-NH2] | 3.6 | 55
12 | {CH2CO}-FVDTT[Bip][NMeA][Phe(3,4-Cl2)][NMeA]ESPCG-NH2 (thioether N-13; SMILES CC(C)[C@@H]1NC(=O)[C@H](Cc2ccccc2)NC(=O)CSC[C@@H](C(=O)NCC(N)=O)NC(=O)[C@@H]2CCCN2C(=O)[C@H](CO)NC(=O)[C@H](CCC(=O)O)NC(=O)[C@H](C)N(C)C(=O)[C@H](Cc2ccc(Cl)c(Cl)c2)NC(=O)[C@H](C)N(C)C(=O)[C@H](Cc2ccc(-c3ccccc3)cc2)NC(=O)[C@H]([C@@H](C)O)NC(=O)[C@H]([C@@H](C)O)NC(=O)[C@H](CC(=O)O)NC1=O, also called 1-26; Ex. No. 1-26) [Ac*-F-V-D-T-T-B-(N-Me)A-(3,4-diCl)F-(N-Me)A-E-S-P-C*-G-NH2] | 2.4 | 84
13 | {CH2CO}-FVSTT[Bip][NMeA][Phe(3-F)][NMeA]DRPCG-NH2 (thioether N-13; SMILES CC(C)[C@@H]1NC(=O)[C@H](Cc2ccccc2)NC(=O)CSC[C@@H](C(=O)NCC(N)=O)NC(=O)[C@@H]2CCCN2C(=O)[C@H](CCCNC(=N)N)NC(=O)[C@H](CC(=O)O)NC(=O)[C@H](C)N(C)C(=O)[C@H](Cc2cccc(F)c2)NC(=O)[C@H](C)N(C)C(=O)[C@H](Cc2ccc(-c3ccccc3)cc2)NC(=O)[C@H]([C@@H](C)O)NC(=O)[C@H]([C@@H](C)O)NC(=O)[C@H](CO)NC1=O, also called 1-15; Ex. No. 1-15) [Ac*-F-V-S-T-T-B-(N-Me)A-(3-F)F-(N-Me)A-D-R-P-C*-G-NH2] | 12 | 53
14 | {CH2CO}-FVPTT[Bip][NMeA][Bip][NMeA]DRPCG-NH2 (thioether N-13; SMILES CC(C)[C@@H]1NC(=O)[C@H](Cc2ccccc2)NC(=O)CSC[C@@H](C(=O)NCC(N)=O)NC(=O)[C@@H]2CCCN2C(=O)[C@H](CCCNC(=N)N)NC(=O)[C@H](CC(=O)O)NC(=O)[C@H](C)N(C)C(=O)[C@H](Cc2ccc(-c3ccccc3)cc2)NC(=O)[C@H](C)N(C)C(=O)[C@H](Cc2ccc(-c3ccccc3)cc2)NC(=O)[C@H]([C@@H](C)O)NC(=O)[C@H]([C@@H](C)O)NC(=O)[C@@H]2CCCN2C1=O, also called 1-19; Ex. No. 1-19) [Ac*-F-V-P-T-T-B-(N-Me)A-B-(N-Me)A-D-R-P-C*-G-NH2] | 2.7 | 38
15 | {CH2CO}-FVSTT[Bip][NMeA][Bip][NMeA]DRPCG-NH2 (thioether N-13, also called 1-2; Ex. No. 1-2) [Ac*-F-V-S-T-T-B-(N-Me)A-B-(N-Me)A-D-R-P-C*-G-NH2] | 1.3 | –
16 | FVSTTXFXAESPCG (not fully specified; N-terminal acetyl (Ac*) joined by a sulfide bond to the side chain of Cys13 (cyclic); 6: L-Bip; 7: L-(N-Me)Phe; 8: L-Bip; 9: L-(N-Me)Ala; C-terminal amide (NH2), also called 1-13; Ex. No. 1-13) [Ac*-F-V-S-T-T-B-(N-Me)F-B-(N-Me)A-E-S-P-C*-G-NH2] | 7.8 | 86
17 | FVSTTSFXADRPCG (not fully specified; N-terminal acetyl (Ac*) joined by a sulfide bond to the side chain of Cys13 (cyclic); 7: L-(N-Me)Phe; 8: L-Bip; 9: L-(N-Me)Ala; C-terminal amide (NH2), also called 1-9; Ex. No. 1-9) [Ac*-F-V-S-T-T-S-(N-Me)F-B-(N-Me)A-D-R-P-C*-G-NH2] | 3 | 35
18 | {CH2CO}-FVDTTS[NMeA][Bip][NMeA]KSPCG-NH2 (thioether N-13; SMILES CC(C)[C@@H]1NC(=O)[C@H](Cc2ccccc2)NC(=O)CSC[C@@H](C(=O)NCC(N)=O)NC(=O)[C@@H]2CCCN2C(=O)[C@H](CO)NC(=O)[C@H](CCCCN)NC(=O)[C@H](C)N(C)C(=O)[C@H](Cc2ccc(-c3ccccc3)cc2)NC(=O)[C@H](C)N(C)C(=O)[C@H](CO)NC(=O)[C@H]([C@@H](C)O)NC(=O)[C@H]([C@@H](C)O)NC(=O)[C@H](CC(=O)O)NC1=O, also called 1-7; Ex. No. 1-7) [Ac*-F-V-D-T-T-S-(N-Me)A-B-(N-Me)A-K-S-P-C*-G-NH2] | 410 | 60
19 | {CH2CO}-FVDTTS[NMeF][Phe(4-CF3)][NMeA]ESPCG-NH2 (thioether N-13; SMILES CC(C)[C@@H]1NC(=O)[C@H](Cc2ccccc2)NC(=O)CSC[C@@H](C(=O)NCC(N)=O)NC(=O)[C@@H]2CCCN2C(=O)[C@H](CO)NC(=O)[C@H](CCC(=O)O)NC(=O)[C@H](C)N(C)C(=O)[C@H](Cc2ccc(C(F)(F)F)cc2)NC(=O)[C@H](Cc2ccccc2)N(C)C(=O)[C@H](CO)NC(=O)[C@H]([C@@H](C)O)NC(=O)[C@H]([C@@H](C)O)NC(=O)[C@H](CC(=O)O)NC1=O, also called 1-6; Ex. No. 1-6) [Ac*-F-V-D-T-T-S-(N-Me)F-(p-CF3)F-(N-Me)A-E-S-P-C*-G-NH2] | 12 | 97
